Measured values from publication PMC7218058.

Experiments:
[1] = molecular target: human FcγRIIIa 158Phe, biotinylated (UniProt P08637); experiment: SPR; conditions: read off a plot
[2] = molecular target: human FcγRIIIa 158Val, biotinylated; experiment: SPR; conditions: read off a plot
[3] = molecular target: human FcγRIIIa 158Phe, biotinylated (UniProt P08637); experiment: cSPR (cellular SPR, opsonized RBCs); conditions: receptor density of 30 nM and opsonization concentration of 0.625 μg/ml; parent: est. 250; read off a plot
[4] = molecular target: human FcγRIIIa 158Val, biotinylated; experiment: cSPR (cellular SPR, opsonized RBCs); conditions: receptor density of 10 nM and opsonization concentration of 1.25 μg/ml; parent: est. 200; read off a plot
anti-kappa nanobody = experiment: cSPR (cellular SPR, opsonized RBCs); conditions: density of 1 nM and opsonization concentration of 0.625 μg/ml; parent: est. 610; read off a plot
[5] = molecular target: human FcγRIIa 131His, biotinylated (UniProt P12318); experiment: cSPR (cellular SPR, opsonized RBCs); conditions: receptor density of 30 nM and opsonization concentration of 2.5 μg/ml; parent: est. 310; read off a plot
Chain of human FcγRIIa 131His, biotinylated (P12318 34-217): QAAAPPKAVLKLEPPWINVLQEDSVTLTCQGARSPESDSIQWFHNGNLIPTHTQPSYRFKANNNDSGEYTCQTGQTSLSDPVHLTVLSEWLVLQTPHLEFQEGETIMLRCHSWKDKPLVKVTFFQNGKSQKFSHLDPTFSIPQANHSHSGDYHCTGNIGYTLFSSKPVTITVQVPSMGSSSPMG

[6] = molecular target: human FcγRIIa 131Arg, biotinylated; experiment: cSPR (cellular SPR, opsonized RBCs); conditions: receptor density of 30 nM and opsonization concentration of 0.625 μg/ml; parent: est. 210; read off a plot
[7] = molecular target: human FcγRIIIa 158Phe, biotinylated (UniProt P08637); experiment: SPR; IBIS MX96; biotinylated human FcγR spotted on a SensEye G-Streptavidin sensor at 1, 3, 10 and 30 nM; 2-fold dilution series of IgG (0.49 to 1000 nM) flowed over; Kd by equilibrium fitting, interpolated to Rmax 500
[8] = molecular target: human FcγRIIIa 158Val, biotinylated (human); experiment: as above

Chain of human FcγRIIIa 158Phe, biotinylated (P08637 17-208): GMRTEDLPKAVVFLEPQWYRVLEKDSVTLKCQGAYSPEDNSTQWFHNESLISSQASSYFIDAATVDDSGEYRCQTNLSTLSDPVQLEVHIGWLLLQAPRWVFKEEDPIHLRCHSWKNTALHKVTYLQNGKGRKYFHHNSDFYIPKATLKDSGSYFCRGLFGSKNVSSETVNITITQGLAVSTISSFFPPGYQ

anti-RhD IgG1 allotype IGHG1*03 R292W
Kd ([1]; parent: est. 1.5e-6): 4400 nM
Kd ([2]; parent: est. 2.7e-7): 470 nM

anti-RhD IgG3 allotype IGHG3*01 R292W
Kd ([1]; parent: est. 8.1e-7): 1900 nM
Kd ([2]; parent: est. 1.7e-7): 340 nM

anti-RhD IgG3 allotype IGHG3*12 F296Y; P291L
Kd ([2]; parent: est. 2.5e-7): 210 nM
other: avidity (AUC) [3]: 50
other: avidity (AUC) [4]: 55
other: avidity (AUC) (anti-kappa nanobody): 640
other: avidity (AUC) [5]: 45
other: avidity (AUC) [6]: 11

anti-RhD IgG3 allotype IGHG3*17 R292A
Kd ([1]; parent: est. 9.2e-7): 860 nM
Kd ([2]; parent: est. 2.1e-7): 220 nM

anti-RhD IgG3 allotype IGHG3*17 R292E
Kd ([1]; parent: est. 9.2e-7): 2700 nM
Kd ([2]; parent: est. 2.1e-7): 580 nM

anti-RhD IgG3 allotype IGHG3*17 R292H
Kd ([1]; parent: est. 9.2e-7): 810 nM
Kd ([2]; parent: est. 2.1e-7): 200 nM

anti-RhD IgG3 allotype IGHG3*17 R292L
Kd ([1]; parent: est. 9.2e-7): 860 nM
Kd ([2]; parent: est. 2.1e-7): 210 nM

anti-RhD IgG3 allotype IGHG3*17 R292W
Kd ([1]; parent: est. 9.2e-7): 2800 nM
Kd ([2]; parent: est. 2.1e-7): 540 nM

anti-RhD IgG3 allotype IGHG3*18 (antibody)
fold reduction of affinity against other IgG3 allotypes [7]: 3 fold
fold reduction of affinity against other IgG3 allotypes [8]: 3 fold

anti-RhD IgG3 allotype IGHG3*18 W292R
Kd ([1]; parent: est. 2.6e-6): 880 nM
Kd ([2]; parent: est. 5.4e-7): 210 nM

anti-RhD IgG3 allotype IGHG3*19 (antibody)
fold reduction of affinity against other IgG3 allotypes [7]: 3 fold
fold reduction of affinity against other IgG3 allotypes [8]: 3 fold
